This note sets out measurements from publication PMC7017353, “Delineating the Molecular Basis of the Calmodulin–bMunc13-2 Interaction by Cross-Linking/Mass Spectrometry—Evidence for a Novel CaM Binding Motif in bMunc13-2” (Cells, 2020).

Where no end group is shown, it is not given here. [ ]: non-standard residue; d: D form. Bpa = N[C@@H](Cc1ccc(C(=O)c2ccccc2)cc1)C(=O)O

The experiment deals with recombinant CaM (UniProt P0DP23 1-149). Kind of experiment: cross-linking; photoaffinity labelling (PAL)-based competition: CaM (5 µM) with segment-C-Bpa or segment-CS-Bpa (5 µM), competitor peptides 0–250 µM; 50 mM HEPES pH 7.2, 150 mM KCl, 5 mM DTT, 2 h RT, 200 µM Ca2+ or 2 mM EGTA; UV; SDS-PAGE and MALDI-TOF-MS. The following applies: both partners purified.

In the case of CINN[Bpa]KNVLREKRLRQKKLLQELV (source: synthetic peptide) [Segment-CS-Bpa], the binding result was “binds”.
